Assay [1] addresses Cynomolgus IL-5 (cynomolgus monkey). Briefly: cell-based or functional assay.
Assay [2] concerns the target recombinant human IL-5 (human) (UniProt P05113). Briefly: cell-based or functional assay.

Regarding Mepolizumab (antibody), the Mean (pM): mean IC50, TF-1.6G4 cell line proliferation assay in assay [1] was 584 pM; in assay [2], 534 pM.
